This is an account of results in patent US20240262899A1.

Assay [1] addresses citrullinated histone H3 (CitH3) peptide (human). Briefly: sandwich ELISA, Ab coated 1 ug/mL, CitH3 at 1000 pg/mL.
For assay [2] the target is unchanged. The assay is described as follows: sandwich ELISA, Ab coated 1 ug/mL, CitH3 at 20000 pg/mL.
The target is the same in assay [3]. The assay is described as follows: sandwich ELISA, Ab coated 1 ug/mL, CitH3 at 0 pg/mL (blank).
For assay [4] the target is unchanged. The assay is described as follows: sandwich ELISA, Ab coated 1 ug/mL, CitH3 at 50 pg/mL.

B1: Y1128-VH1/VL1 (antibody, V domains shown)
VH: EVQLVQSGAEVKKPGATVKISCKASGFNIKDYYMHWMQQRPGKGLEWIGWIDPENGNTIYDPKFQGRVTITSDTSTDTAYLELSSLRSEDTAVYYCAPFGNYVWFAYWGQGTLVTVSS
VL: DVVMTQSPLSLPVTLGQPASISCRSSQSIVHSNGITYLEWFQQRPGQSPRLLIYKVSNRFSGVPDRFSGSGSGTDFTLKISRVEAEDVGVYYCFQGSHVPFTFGQGTKLEIKR
With B1, the ELISA signal (raw data) in assay [1] came to 2910; in assay [2], 3700; in assay [3] it was 2780; in assay [4], 2950.
